Assay results from paper PMC3738494, “A Systematic Analysis of Host Factors Reveals a Med23-Interferon-λ Regulatory Axis against Herpes Simplex Virus Type 1 Replication” (PLoS Pathogens, 2013).

Target: T1, Med23, myc-tagged fusion protein expressed in HEK cells (human, UniProt Q9ULK4 1-1368)
T1 sequence (looked up): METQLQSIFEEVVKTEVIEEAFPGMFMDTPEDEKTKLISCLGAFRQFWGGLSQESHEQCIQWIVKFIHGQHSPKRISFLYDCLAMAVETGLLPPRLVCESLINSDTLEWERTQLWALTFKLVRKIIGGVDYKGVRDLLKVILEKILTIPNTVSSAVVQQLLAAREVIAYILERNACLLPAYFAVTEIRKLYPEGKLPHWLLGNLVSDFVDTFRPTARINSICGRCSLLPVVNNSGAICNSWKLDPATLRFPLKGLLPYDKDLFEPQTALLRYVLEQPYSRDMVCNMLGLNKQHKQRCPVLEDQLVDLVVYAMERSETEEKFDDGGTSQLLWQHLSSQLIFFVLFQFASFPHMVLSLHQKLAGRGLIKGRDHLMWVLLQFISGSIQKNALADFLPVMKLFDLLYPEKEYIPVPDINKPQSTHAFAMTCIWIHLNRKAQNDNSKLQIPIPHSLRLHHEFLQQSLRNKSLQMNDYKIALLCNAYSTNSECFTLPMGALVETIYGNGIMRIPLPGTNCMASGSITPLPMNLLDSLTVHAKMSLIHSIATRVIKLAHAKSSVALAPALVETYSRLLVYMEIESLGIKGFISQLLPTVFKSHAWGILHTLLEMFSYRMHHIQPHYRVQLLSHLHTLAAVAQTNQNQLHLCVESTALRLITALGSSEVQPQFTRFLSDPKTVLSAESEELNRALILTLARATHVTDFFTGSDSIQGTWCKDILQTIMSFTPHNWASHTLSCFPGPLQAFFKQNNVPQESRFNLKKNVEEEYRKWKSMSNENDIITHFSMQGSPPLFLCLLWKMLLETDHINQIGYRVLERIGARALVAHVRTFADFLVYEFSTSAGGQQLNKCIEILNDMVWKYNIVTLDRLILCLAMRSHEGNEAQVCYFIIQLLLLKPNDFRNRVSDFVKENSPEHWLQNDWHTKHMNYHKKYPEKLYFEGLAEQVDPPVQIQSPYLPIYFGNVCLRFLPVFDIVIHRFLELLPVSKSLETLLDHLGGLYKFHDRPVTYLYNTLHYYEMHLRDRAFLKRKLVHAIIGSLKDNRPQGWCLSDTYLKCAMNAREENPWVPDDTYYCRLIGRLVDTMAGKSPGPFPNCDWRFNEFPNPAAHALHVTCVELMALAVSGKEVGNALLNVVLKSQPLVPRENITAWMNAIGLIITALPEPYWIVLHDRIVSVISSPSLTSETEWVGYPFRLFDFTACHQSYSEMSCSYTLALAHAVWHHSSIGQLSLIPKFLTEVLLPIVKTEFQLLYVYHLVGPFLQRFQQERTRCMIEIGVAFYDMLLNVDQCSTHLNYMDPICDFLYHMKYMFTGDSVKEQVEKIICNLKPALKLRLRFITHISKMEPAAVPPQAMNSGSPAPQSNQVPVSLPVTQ
Assay: cell-based or functional assay

IFN-λ1 promoter luciferase reporter in A549 cells, IRF7 co-expressed with Med23 (IRF7 alone ~9-fold over background): ~18 fold
IFN-λ3 in the supernatant of A549 cells by ELISA, Med23 co-expressed with IRF7 against either alone: > 2 fold
B1: IRF7, HA-tagged, expressed in HEK cells (natural protein, human, UniProt Q92985 1-503, looked up)
chain: MALAPERAAPRVLFGEWLLGEISSGCYEGLQWLDEARTCFRVPWKHFARKDLSEADARIFKAWAVARGRWPPSSRGGGPPPEAETAERAGWKTNFRCALRSTRRFVMLRDNSGDPADPHKVYALSRELCWREGPGTDQTEAEAPAAVPPPQGGPPGPFLAHTHAGLQAPGPLPAPAGDKGDLLLQAVQQSCLADHLLTASWGADPVPTKAPGEGQEGLPLTGACAGGPGLPAGELYGWAVETTPSPGPQPAALTTGEAAAPESPHQAEPYLSPSPSACTAVQEPSPGALDVTIMYKGRTVLQKVVGHPSCTFLYGPPDPAVRATDPQQVAFPSPAELPDQKQLRYTEELLRHVAPGLHLELRGPQLWARRMGKCKVYWEVGGPPGSASPSTPACLLPRNCDTPIFDFRVFFQELVEFRARQRRGSPRYTIYLGFGQDLSAGRPKEKSLVLVKLEPWLCRVHLEGTQREGVSSLDSSSLSLCLSSANSLYDDIECFLMELEQPA
